Assay results: patent publication JP2019059762A (dated 2019)
Several values for one entry are separate records, joined by “and”; a condition that tells them apart may be missing. Equal values may be shown once.

Key:
Experiment in all cases: cell-based or functional assay
recombinant human IL-13 = recombinant human IL-13 (human, UniProt P35225 35-146, limits assumed)
cynomolgus monkey IL-13 = cynomolgus monkey IL-13 (cynomolgus monkey, UniProt Q0PW92 21-132)
cynomolgus monkey IL-4 = target: T1, cynomolgus monkey IL-4 (cynomolgus monkey, UniProt P79339 25-153)
T1 sequence (looked up): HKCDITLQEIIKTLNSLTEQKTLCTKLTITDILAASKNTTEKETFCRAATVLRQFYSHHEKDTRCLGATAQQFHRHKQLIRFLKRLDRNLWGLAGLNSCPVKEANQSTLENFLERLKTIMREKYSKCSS

Sequence of recombinant human IL-13 (P35225 35-146 limits assumed): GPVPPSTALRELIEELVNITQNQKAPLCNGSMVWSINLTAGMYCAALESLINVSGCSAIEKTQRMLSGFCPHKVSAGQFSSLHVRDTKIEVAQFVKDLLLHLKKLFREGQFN
Sequence of cynomolgus monkey IL-13 (Q0PW92 entry or part of it): as the sequence (P35225 35-146 limits assumed) above, with G1S, R10K, M42V, S67N, H83R, L100V counted along it

IC50, inhibition of IL-4- and IL-13-induced LOX gene expression in IPF lung fibroblasts (recombinant human IL-13): 3 nM and 6 nM
IC50, inhibition of IL-13-induced Stat6 phosphorylation in human whole blood monocytes, donor 002 (recombinant human IL-13): 1.32 nM
IC50, inhibition of IL-13-induced Stat6 phosphorylation in human whole blood monocytes, donor 229 (recombinant human IL-13): 3.68 nM
IC50, inhibition of IL-13-induced Stat6 phosphorylation in human whole blood monocytes, donor 245 (recombinant human IL-13): 2.65 nM
IC50, suppression of IL-6 release from IPF lung fibroblasts (LL97A) stimulated with rhIL-13 + rhIL-4 together (recombinant human IL-13): 7.8 nM
IC50, suppression of eotaxin release from IPF lung fibroblasts (LL97A) stimulated with rhIL-13 + rhIL-4 together (recombinant human IL-13): 3.8 nM
geometric mean IC50, inhibition of hIL-13-induced TF-1 cell proliferation (recombinant human IL-13): 3.02 nM
geometric mean IC50 of three experiments, inhibition of IL-13-induced Stat6 phosphorylation (recombinant human IL-13): 2.34 nM
geometric mean IC50, inhibition of cIL-13-induced TF-1 cell proliferation (cynomolgus monkey IL-13): 0.45 nM
geometric mean IC50, inhibition of cIL-4-induced TF-1 cell proliferation (cynomolgus monkey IL-4): 0.53 nM
B1: huTBTI3_2_1 (bispecific antibody)
chain 1: EVQLKESGPGLVAPGGSLSITCTVSGFSLTDSSINWVRQPPGKGLEWLGMIWGDGRIDYADALKSRLSISKDSSKSQVFLEMTSLRTDDTATYYCARDGYFPYAMDFWGQGTSVTVSSGGGGSGGGGSQVQLQQSGPELVKPGASVKISCKASGYSFTSYWIHWIKQRPGQGLEWIGMIDPSDGETRLNQRFQGRATLTVDESTSTAYMQLRSPTSEDSAVYYCTRLKEYGNYDSFYFDVWGAGTLVTVSSA
chain 2: DIVLTQSPASLAVSLGQRATISCRASESVDSYGQSYMHWYQQKAGQPPKLLIYLASNLESGVPARFSGSGSRTDFTLTIDPVQAEDAATYYCQQNAEDSRTFGGGTKLEIKGGGGSGGGGSDIQMTQSPASLSVSVGDTITLTCHASQNIDVWLSWFQQKPGNIPKLLIYKASNLHTGVPSRFSGSGSGTGFTLTISSLQPEDIATYYCQQAHSYPFTFGGGTKLEIKR
